Data set [1] in a line: Validation of the ability to cross the BBB: level of fusion protein in hippocampal tissue homogenate by HSA ELISA. The class given is in vivo. As to conditions: mice, 1 μm/kg single intravenous injection, hippocampal tissue 6 h after administration. The procedure: Validation of the Ability to Across BBB of PTD-HSA-L-α-MSH
HSA Elisa Kit (cygnustechnologies).
10 mice (18-22 g) were used in the experiment, and were purchased from Laboratory Animal Center of Lanzhou University.
Mice were housed in groups of at most five animals per cage with clean water and food available ad libitum. PTD-HSA-L-α-MSH or HSA-L-α-MSH were given at a dosage of 1 μm/kg through a single intravenous injection in 150 μL volume. Mice were anesthetized 6 h after drug administration. The hippocampal tissue was harvest and homogenized immediately. Finally the level of PTD-HSA-L-α-MSH or HSA-L-α-MSH in hippocampal tissue homogenate was tested by ELISA.

The test system of another data set is TNF-α. Put plainly: Experimental brain inflammation of mouse induced by LPS: TNF-α in hippocampal tissue homogenate by ELISA. It counts as in vivo. As to conditions: mice. From the text:
Neuroprotection of TAT-HSA-α-MSH on Experimental Brain Inflammation in Mice
TNF-a Elisa Kit (Dakewei, China).
20 mice (18-22 g) were used in the experiment, and were purchased from Laboratory Animal Center of Lanzhou University.
Lipopolysaccharide (LPS), a gram negative bacterial endotoxin, is the cell wall component of gram negative bacteria. Within the CNS, LPS challenge triggers central inflammatory responses, which results in releasing of proinflammatory mediators such as TNF-α. Therefore, to determine whether the described PTD-HSA-L-α-MSH can inhibit the production of pro-inflammatory factors in vivo, experimental brain inflammation of mouse induced by LPS was established, in which TNF-α was analyzed to detect the efficacy of PTD-HSA-L-α-MSH.
Mice were housed in groups of at most five animals per cage with clean water and food available ad libitum. The mice in control group were injected with 150 μL saline two times. The mice in LPS group were injected with 150 μL LPS at the dose of 5 mg/kg, and then injected with 150 μL saline. The mice in PTD-HSA-L-α-MSH+LPS group were injected with 150 μL LPS at the dose of 5 mg/kg, and then injected with 150 μL PTD-HSA-L-α-MSH at the dose of 1 μm/kg. The mice in α-MSH+LPS group were injected with 150 μL LPS at the dose of 5 mg/kg, and then injected with 150 μL α-MSH at the dose of 1 μm/kg. Mice were anesthetized 2 h after drug administration. […]

The conditions of data set [2]: rat, iv administration, full length peptide; cited from earlier work.

This is an account of results in US11459369B2, “Fusion protein for alpha-melanocyte stimulating hormone and preparation method and use thereof” (LANZHOU UNIVERSITY, priority 2015, dated 2022).

On to “HSA-L-α-MSH: fusion protein of HSA, linker and α-MSH without PTD; amino acid sequence SEQ ID NO:10, about 69 KDa; comparator”, for which, in data set [1], the “PTD-HSA-L-α-MSH(ng/mL), level in hippocampal tissue homogenate tested by ELISA” value stood at 0.06 ± 0.02 ng/mL.
Take “α-Melanocyte stimulating hormone [α-MSH, reference compound]”: in the data set on TNF-α (LPS 5 mg/kg then substance 1 μm/kg, hippocampal tissue 2 h after administration), the “TNF-α (pg/mg protein) in hippocampal tissues tested by ELISA” value amounted to 155.8 ± 10.3 pg/mg protein. Also, the “effect on TNF-α increase compared with LPS group” value in the data set with TNF-α (LPS 5 mg/kg, single dose of 1 μm/kg intraperitoneally) is “could not be suppressed”. Also, the half-life result in data set [2] is recorded as “a few minutes”.
